Laboratory results published in the supplement of paper PMC7877785.
± gives the uncertainty stated by the source.

Assay: self-splicing fitness, log relative to wild type (ln ratio); higher = more splicing; Tetrahymena group I intron in knt gene, E. coli kanamycin selection, DiMSum; sequences stand for … in CUCUCU…GGAGGGAAAAGUUAUCAGGCAUGCACCUGGUAGCUAGUCUUUAAACCAAUAGAUUGCAUCGGUUUAAAAGGCAAGACCGUCAAAUUGCGGGAAAGGGGUCAACAGCCGUUCAGUACCAAGUCUCAGGGGAAACUUUGAGAUGGCCUUGCAAAGGGUAUGGUAAUAAGCUGACGGACAUGGUCCUAACCACGCAGCCAAGUCCUAAGUCAACAGAUCUUCUGUUGAUAUGGAUGCAGUUCACAGACUAAAUGUCGGUCGGGGAAGAUGUAUUCUUCUCAUAAGAUAUAGUCGGACCUCUCCUUAAUGGGAGCUAGCGGAUGAAGUGAUGCAACACUGGAGCCGCUGGGAACUAAUUUGUAUGCGAAAGUAUAUUGAUUAGUUUUGGAGUACUCGUGGUCG
Outline: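 Colonies from six replicate transformations of E. coli BL21(DE3) were pooled and amplicon-sequenced on an Illumina HiSeq 2500. The library placed an intron with all eight P1ex-region nucleotides randomised inside the knt kanamycin-resistance gene on pET-22b(+), and cells grew overnight at 37°C or 30°C on LB agar with or without 25 μg/mL kanamycin (plus 100 μg/mL carbenicillin, 50 μM IPTG, 0.2% rhamnose). Fitness is the DiMSum error-weighted combination of wild-type-normalised replicate fold changes, kanamycin versus none.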

Sequence	self-splicing fitness (ln) (30 °C)	self-splicing fitness (ln) (37 °C)
AAAAAGCAAUAUUACGAACC	-1.53 ± 0.12	-0.312 ± 0.18
AAAAAGCAAUAUUACGACCC	0.000517 ± 0.17	0.616 ± 0.24
AAAAAGCAAUAUUACGAGCA	-0.699 ± 0.076	-0.722 ± 0.091
AAAAAGCAAUAUUACGAGCC	-2.31 ± 0.2	-1.28 ± 0.27
AAAAAGCAAUAUUACGAUUA	-0.462 ± 0.067	0.23 ± 0.081
AAAAAGCAAUAUUACGCAAA	-1.15 ± 0.13	-1.43 ± 0.17
AAAAAGCAAUAUUACGCACC	-1.16 ± 0.14	-0.602 ± 0.16
AAAAAGCAAUAUUACGCAGC	-1.99 ± 0.13	-2.19 ± 0.19
AAAAAGCAAUAUUACGCCGG	-1.62 ± 0.11	0.057 ± 0.12
AAAAAGCAAUAUUACGCCUC	–	-1.18 ± 0.22
AAAAAGCAAUAUUACGCCUU	-0.374 ± 0.071	0.151 ± 0.1
AAAAAGCAAUAUUACGCGCA	-0.39 ± 0.082	0.127 ± 0.11
AAAAAGCAAUAUUACGGAAA	-2.24 ± 0.18	-1.58 ± 0.19
AAAAAGCAAUAUUACGGAGC	-3.4 ± 0.2	-2.1 ± 0.18
AAAAAGCAAUAUUACGGAUC	-0.895 ± 0.068	-0.418 ± 0.092
AAAAAGCAAUAUUACGGCAA	-0.286 ± 0.092	0.328 ± 0.12
AAAAAGCAAUAUUACGGCGC	-0.402 ± 0.093	0.559 ± 0.13
AAAAAGCAAUAUUACGGGCC	-1.8 ± 0.28	-1.17 ± 0.22
AAAAAGCAAUAUUACGGUCA	-0.0389 ± 0.065	0.206 ± 0.082
AAAAAGCAAUAUUACGGUGA	-0.824 ± 0.058	-0.362 ± 0.064
AAAAAGCAAUAUUACGUACC	-0.981 ± 0.13	-0.0947 ± 0.14
AAAAAGCAAUAUUACGUCGA	-1.05 ± 0.067	-0.415 ± 0.082
AAAAAGCAAUAUUACGUCGU	-1.5 ± 0.061	-0.928 ± 0.078
AAAAAGCAAUAUUACGUUAA	-2.66 ± 0.12	-1.05 ± 0.093
AAACAGCAAUAUUACGACGG	-3.02 ± 0.092	-1.13 ± 0.087
AAACAGCAAUAUUACGAGCA	-1.76 ± 0.091	-1.09 ± 0.082

Sequence	self-splicing fitness (ln) (30 °C)	self-splicing fitness (ln) (37 °C)
AAACAGCAAUAUUACGAGCG	-1.93 ± 0.079	-0.668 ± 0.095
AAACAGCAAUAUUACGCAGG	-2.41 ± 0.15	-2.33 ± 0.15
AAACAGCAAUAUUACGCAUG	-2.12 ± 0.077	-1.58 ± 0.089
AAACAGCAAUAUUACGCCAG	-4.93 ± 0.39	-2.11 ± 0.22
AAACAGCAAUAUUACGCCCA	-1.29 ± 0.15	-0.816 ± 0.15
AAACAGCAAUAUUACGCCCU	-0.534 ± 0.11	0.201 ± 0.16
AAACAGCAAUAUUACGCGCG	-1.2 ± 0.067	-0.673 ± 0.081
AAACAGCAAUAUUACGCUCC	-1.21 ± 0.14	-0.165 ± 0.13
AAACAGCAAUAUUACGCUCG	-1.11 ± 0.083	-0.7 ± 0.11
AAACAGCAAUAUUACGCUGC	-4.51 ± 0.19	-1.81 ± 0.13
AAACAGCAAUAUUACGCUUG	-1.9 ± 0.096	-0.605 ± 0.098
AAACAGCAAUAUUACGCUUU	-3.11 ± 0.095	-1.33 ± 0.083
AAACAGCAAUAUUACGGAGA	-2.87 ± 0.15	-2.57 ± 0.15
AAACAGCAAUAUUACGGUAU	-2.53 ± 0.074	-1.58 ± 0.088
AAACAGCAAUAUUACGGUCG	-1.07 ± 0.059	-0.526 ± 0.082
AAACAGCAAUAUUACGGUCU	-0.15 ± 0.059	-0.161 ± 0.064
AAACAGCAAUAUUACGUAAA	-2.37 ± 0.068	-1.13 ± 0.074
AAACAGCAAUAUUACGUAAC	-4.39 ± 0.24	-1.97 ± 0.14
AAACAGCAAUAUUACGUAUA	-3 ± 0.14	-1.27 ± 0.12
AAACAGCAAUAUUACGUAUU	-2.17 ± 0.089	-1.53 ± 0.097
AAACAGCAAUAUUACGUGAA	-1.92 ± 0.073	-0.646 ± 0.072
AAAGAGCAAUAUUACGAAGG	-3.52 ± 0.33	-2.64 ± 0.41
AAAGAGCAAUAUUACGACCC	-2.42 ± 0.45	–
AAAGAGCAAUAUUACGACGU	-1.63 ± 0.084	-0.555 ± 0.089
AAAGAGCAAUAUUACGAGUC	-3.41 ± 0.38	-2.63 ± 0.45
AAAGAGCAAUAUUACGCACG	-2.69 ± 0.23	-2.22 ± 0.26

Sequence	self-splicing fitness (ln) (30 °C)	self-splicing fitness (ln) (37 °C)
AAAGAGCAAUAUUACGCCAA	-1.26 ± 0.21	–
AAAGAGCAAUAUUACGCCCA	-2.88 ± 0.32	-2.02 ± 0.28
AAAGAGCAAUAUUACGCUUA	-2.74 ± 0.31	-3.02 ± 0.23
AAAGAGCAAUAUUACGGACU	-1.36 ± 0.12	-1.59 ± 0.16
AAAGAGCAAUAUUACGGCAC	-2.72 ± 0.19	-2.01 ± 0.21
AAAGAGCAAUAUUACGGGAA	-2.67 ± 0.32	-2.16 ± 0.28
AAAGAGCAAUAUUACGGGGU	-2.63 ± 0.21	-2.18 ± 0.24
AAAGAGCAAUAUUACGGUAC	-4.14 ± 0.24	-2.57 ± 0.2
AAAGAGCAAUAUUACGGUUA	-2.49 ± 0.21	-2.06 ± 0.18
AAAGAGCAAUAUUACGGUUC	–	-2.82 ± 0.36
AAAGAGCAAUAUUACGUACU	-1.21 ± 0.14	-0.952 ± 0.15
AAAGAGCAAUAUUACGUCAU	-2.38 ± 0.37	-2.45 ± 0.35
AAAGAGCAAUAUUACGUCCC	-2.1 ± 0.28	-1.07 ± 0.35
AAAGAGCAAUAUUACGUGAA	-3.27 ± 0.14	-2.44 ± 0.16
AAAGAGCAAUAUUACGUGGC	-2.86 ± 0.23	–
AAAGAGCAAUAUUACGUUCC	-3.94 ± 0.31	-2.49 ± 0.29
AAAUAGCAAUAUUACGAAAG	-3.48 ± 0.18	-1.6 ± 0.14
AAAUAGCAAUAUUACGAACC	-1.91 ± 0.33	1.21 ± 0.28
AAAUAGCAAUAUUACGAACU	1.11 ± 0.17	-0.182 ± 0.16
AAAUAGCAAUAUUACGAAGC	-3.18 ± 0.47	–
AAAUAGCAAUAUUACGAUCU	-0.0304 ± 0.11	0.867 ± 0.13
AAAUAGCAAUAUUACGAUGC	-2.26 ± 0.31	-1.65 ± 0.34
AAAUAGCAAUAUUACGCACC	-1.34 ± 0.21	-0.223 ± 0.23
AAAUAGCAAUAUUACGCACU	0.478 ± 0.12	-0.381 ± 0.13
AAAUAGCAAUAUUACGCCAA	-2.54 ± 0.18	-1.86 ± 0.13
AAAUAGCAAUAUUACGCCCA	-0.102 ± 0.18	-0.392 ± 0.17
